Measured values: patent US20070142318A1, “Compositions, methods and kits for repressing virulence in gram positive bacteria” (priority 2004, published 2007)
Positions count from the first letter of the chain named. In names and notes the source's numbering stands. Read-outs that look alike come from different tables or passages of the source.

Assays:
[1] = tested on: CodY (Staphylococcus aureus); experiment: EMSA; conditions: concentration giving shift; 2 mM GTP + 10 mM each Ile, Val, Leu
[2] = target: T1, CodY (Bacillus subtilis, UniProt P39779); experiment: Gel shift assay, stimulation of CodY binding to target DNA by effectors; parameters: species or system B. subtilis; conditions: for stimulation of CodY binding to new target genes and dpp promoter region: amino acids 10-30 mM
T1 sequence (P39779 1-259): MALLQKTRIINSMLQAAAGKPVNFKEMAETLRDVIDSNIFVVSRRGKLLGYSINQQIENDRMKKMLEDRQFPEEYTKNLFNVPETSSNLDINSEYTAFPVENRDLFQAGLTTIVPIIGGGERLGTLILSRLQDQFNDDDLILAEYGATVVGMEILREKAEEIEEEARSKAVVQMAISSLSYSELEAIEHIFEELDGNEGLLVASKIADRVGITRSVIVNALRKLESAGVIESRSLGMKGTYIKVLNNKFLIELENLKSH
Procedure: A test of whether BCAAs have any direct effect on CodY activity was performed. […] In all cases, the apparent dissociation constant for binding was substantially below the concentration of CodY inside the cell (4 μM, see below). […] By regulating gene expression in response to both the GTP level and the availability of certain amino acids, CodY can insure that the cell responds in a coherent way to many types of nutritional stress.
The effects of GTP and BCAAs at different CodY targets can vary. At several target sites, BCAAs and GTP were each found to have small stimulatory effects on binding (in a gel shift assay), but the mixture strongly stimulates (FIG. 1). […] Some genes may respond to CodY in its GTP-bound conformation, other genes to CodY in its BCAA-bound conformation, and still other genes to CodY bound to both kinds of effectors. These variations could reflect differences in specificity of binding or differences in affinity of binding.
The concentration dependence of stimulation of DNA binding by effectors is assessed. At the dpp promoter, GTP at 600 μM increased the fraction of DNA that was bound by a constant concentration of CodY (in a gel shift assay) from 10% to 50%. Titration assays of this type, using varying concentrations of GTP, isoleucine, and valine, provide a measure of the effective concentrations of each of these effectors.

[3] = tested on: ilvB promoter lacZ fusions; conditions: GTP limitation by addition of decoyinine; cited from earlier work
[4] = tested on: wild-type cells; conditions: excess nutrients; cited from earlier work
[5] = tested on: CodY S215T S215T (Bacillus subtilis); experiment: EMSA
[6] = tested on: CodY A207D A207D (Bacillus subtilis); experiment: EMSA; conditions: GTP + ILV; also >500 without effectors
[7] = tested on: CodY (Bacillus subtilis); experiment: EMSA; conditions: 2 mM GTP + 10 mM each Ile, Leu, Val; 150 nM without effectors
[8] = tested on: CodY R214E R214E (Bacillus subtilis); experiment: EMSA; conditions: GTP + ILV; also >500 without effectors
[9] = target: T1, CodY; conditions: cited from earlier work
[10] = target: T1, CodY; conditions: cited from earlier work; remark: listed apart in the source
[11] = tested on: dpp-lacZ; experiment: dpp-lacZ expression in vivo (β-galactosidase); conditions: for β-galactosidase expression (Miller units) in mid-exponential cells: dpp-lacZ; for derepression of expression in vivo: versus wild type
[12] = target: dpp promoter region; experiment: Gel mobility shift assay of CodY binding to the dpp promoter region; conditions: CodY concentration that shifted 50% of the DNA
[13] = read-out: Estimated KD (nM), +GTP, ILV, GTP (2 mM) and isoleucine, valine and leucine (10 mM each)
[14] = read-out: Estimated KD (nM), No effectors

Q: With nuc promoter region as the molecule, how does the binding [1] read?
A: The binding was 160 nM.

Q: With `CC(C)C[C@H](N)C(=O)O` [leucine] as the molecule, how does the “stimulation of CodY binding to new target genes and dpp promoter region” value (“stimulation of CodY binding” below) [2] read?
A: The value was “not”.

Q: With hla promoter region as the molecule, how does the binding [1] read?
A: Its binding is 160 nM.

Q: With `CC(C)[C@H](N)C(=O)O` [valine] as the molecule, how does the “stimulation of CodY binding” value [2] read?
A: The value was “stimulated significantly”.

Q: With `C=C1O[C@@](CO)(n2cnc3c(N)ncnc32)[C@H](O)[C@@H]1O` [decoyinine] as the molecule, how does the “induction of ilvB-lacZ fusions with or without T-box” value [3] read?
A: The value was “induced both fusions”.

Q: What about the “sporulation of wild-type cells” value [4] of the same molecule?
A: The value was “failed to sporulate efficiently unless decoyinine was added”.

Q: What does the source list for dpp promoter region?
A: Kd [5]: > 0.5 µM; Kd [6]: > 0.5 µM; Kd [7]: 0.02 µM; Kd [8]: > 0.5 µM

Q: With `Nc1nc2c(ncn2[C@@H]2O[C@H](COP(=O)(O)OP(=O)(O)OP(=O)(O)O)[C@@H](O)[C@H]2O)c(=O)[nH]1` [GTP, guanosine triphosphate] as the molecule, how does the “fraction of DNA bound by a constant concentration of CodY” value ([2]; dpp promoter, GTP at 600 μM, 10% without) read?
A: Its value is 50%.

Q: And the “effect on CodY binding at the yhdG regulatory region” value ([2]; yhdG regulatory region, alone or in combination)?
A: The value was “only a small effect”.

Q: What about the “binding to CodY compared with ATP, CTP or UTP” value [9] of the same molecule?
A: Its value is “more avidly”.

Q: What about the “repression of dpp transcription by CodY” value ([10]; 300 μM GTP (typical of early stationary phase cells)) of the same molecule?
A: The value was “almost no repression”.

Q: What about the “inhibition of dpp transcription by CodY” value ([10]; 2 mM GTP) of the same molecule?
A: The value was roughly 80%.

Q: What about the EC50 ([10]; read-out: GTP concentration giving 50% repression of transcription from the dpp promoter) of the same molecule?
A: Its EC50 is roughly 1500 µM.

Q: For `CC[C@H](C)[C@H](N)C(=O)O` [isoleucine], which “stimulation of CodY binding” value [2] is on record?
A: The value was “stimulated significantly”.

B1: A207D (protein, UniProt P39779 2-259, looked up, variant A207D)
Global transcriptional …: ALLQKTRIINSMLQAAAGKPVNFKEMAETLRDVIDSNIFVVSRRGKLLGYSINQQIENDRMKKMLEDRQFPEEYTKNLFNVPETSSNLDINSEYTAFPVENRDLFQAGLTTIVPIIGGGERLGTLILSRLQDQFNDDDLILAEYGATVVGMEILREKAEEIEEEARSKAVVQMAISSLSYSELEAIEHIFEELDGNEGLLVASKIDDRVGITRSVIVNALRKLESAGVIESRSLGMKGTYIKVLNNKFLIELENLKSH
Q: With B1 as the molecule, how does the “derepression in vivo” value [11] read?
A: The value was “severe derepression”.

Q: And the “β-galactosidase expression (Miller units) in mid-exponential cells” value (shortened to “β-galactosidase expression”) [11]?
A: Its value is 130 Miller units.

Q: And the Kd [12, 13]?
A: The Kd was greater than 500 nM.

Q: What about the Kd [12, 14] of the same molecule?
A: The Kd was greater than 500 nM.

B2: S215T (protein, UniProt P39779 2-259, looked up, variant S215T)
Global transcriptional …: B1 Global transcriptional … with D206A, S214T
Q: Which results are given for B2?
A: β-galactosidase expression (Miller units) in mid-exponential cells [11]: 150 Miller units; derepression of expression in vivo [11]: 2 fold; Kd [12, 13]: > 500 nM

B3: R214E (protein, UniProt P39779 2-259, looked up, variant R214E)
Global transcriptional …: B1 Global transcriptional … with D206A, R213E
Q: Which results are given for B3?
A: derepression in vivo [11]: severe derepression; β-galactosidase expression (Miller units) in mid-exponential cells [11]: 94 Miller units; Kd [12, 13]: > 500 nM; Kd [12, 14]: > 500 nM

B4: WT: wild-type B. subtilis CodY, a GTP-activated repressor protein (protein)
chain: B1 Global transcriptional … with D206A
Q: What does the source list for B4?
A: β-galactosidase expression (Miller units) in mid-exponential cells [11]: 6 Miller units; Kd [12, 13]: 20 nM; Kd [12, 14]: 150 nM

B5: R214K (protein, UniProt P39779 2-259, looked up, variant R214K)
Global transcriptional …: B1 Global transcriptional … with D206A, R213K
Q: Which “derepression of expression in vivo” value [11] does the source give for B5 here?
A: The value was 2 fold.

B6: V218D (protein, UniProt P39779 2-259, looked up, variant V218D)
Global transcriptional …: B1 Global transcriptional … with D206A, V217D
Q: With B6 as the molecule, how does the “derepression in vivo” value [11] read?
A: Its value is “severe derepression”.

Q: What about the “β-galactosidase expression” value [11] of the same molecule?
A: Its value is 14 Miller units.

Q: What about the Kd [12, 13] of the same molecule?
A: Its Kd is 150 to 200 nM.

B7: S215F (protein, UniProt P39779 2-259, looked up, variant S215F)
Global transcriptional …: B1 Global transcriptional … with D206A, S214F
Q: With B7 as the molecule, how does the “derepression in vivo” value [11] read?
A: Its value is “severe derepression”.

Q: And the “β-galactosidase expression” value [11]?
A: Its value is 12 Miller units.

Q: And the Kd [12, 13]?
A: Its Kd is 350 to 400 nM.

B8: V218A (protein, UniProt P39779 2-259, looked up, variant V218A)
Global transcriptional …: B1 Global transcriptional … with D206A, V217A
Q: Which results are given for B8?
A: Kd [12, 13]: 100 to 200 nM; Kd [12, 14]: 250 to 500 nM
